Residue numbers refer to the chain shown, from its start.
B1: mouse anti-CD40 monoclonal antibody C1H1 (antibody, V domains shown)
VH: EVKLVESGGGLVKPGASLKLSCAASGFTFSNYGISWVRQTSDKRLEWVASISSGGDNTYYPDNVKGRFTISRENAKNTLYLQMSSLKSEDTALYYCARAGEKAMDYWGQGTSVTVSS
VL: DIVLTQSPVTLSVTPGDSVSLSCRASQTINNNLHWYQQKSHESPRLLIKYASQSISGIPSRFSGSGSGTDFTLSINSVETEDFGIYFCQQFSSWPLTFGAGTKLELK
notes: Parent mouse antibody from a hybridoma; the mouse constant regions are not; also called Mouse C1H1
B2: chimeric antibody C1H1 (antibody, human IgG1, kappa, V domains shown)
VH: B1 VH
VL: DIVLTQSPVTLSVTPGDSVSLSCRASQTINNNLHWYQQKSHESPRLLIKYASQSISGIPSRFSGSGSGTDFTLSINSVETEDFGIYFCQQFSSWPLTFGAGTKLELKR
notes: also called Chimeric C1H1
B3: humanized antibody huC1H1-V1 (antibody, human IgG2, kappa, V domains shown)
VH: EVQLVESGGGLVKPGGSLRLSCAASGFTFSNYGISWVRQAPGKGLEWVASISSGGDNTYYPDNVKGRFTISRDNAKNSLYLQMNSLRAEDTAVYYCARAGEKAMDYWGQGTLVTVSS
VL: EIVLTQSPATLSLSPGERATLSCRASQTINNNLHWYQQKPGQAPRLLIKYASQSISGIPARFSGSGSGTDFTLTISSLEPEDFAVYFCQQFSSWPLTFGGGTKVEIKR
notes: Human IgG2 / kappa
B4: humanized antibody huC1H1-V2 (antibody, human IgG2, kappa, V domains shown)
VH: B3 VH with A49S
VL: B3 VL
notes: Human IgG2 / kappa
B5: BM2 (selicrelumab) (antibody, human IgG2, kappa, V domains shown)
VH: not shown
VL: DIQMTQSPSSVSASVGDRVTITCRASQGIYSWLAWYQQKPGKAPNLLIYTASTLQSGVPSRFSGSGSGTDFTLTISSLQPEDFATYYCQQANIFPLTFGGGTKVEIKR
notes: Benchmark antibody, prepared in-house; also called CD40-BM2; benchmark
B6: BM1 (dacetuzumab) (antibody, human IgG1, kappa, V domains shown)
VH: EVQLVESGGGLVQPGGSLRLSCAASGYSFTGYYIHWVRQAPGKGLEWVARVIPNAGGTSYNQKFKGRFTLSVDNSKNTAYLQMNSLRAEDTAVYYCAREGIYWWGQGTLVTVSS
VL: DIQMTQSPSSLSASVGDRVTITCRSSQSLVHSNGNTFLHWYQQKPGKAPKLLIYTVSNRFSGVPSRFSGSGSGTDFTLTISSLQPEDFATYFCSQTTHVPWTFGQGTKVEIKR
notes: Benchmark antibody, prepared in-house; also called CD40-BM1; benchmark

Columns and labels:
human CD40-Fc protein [1] = target: T1, human CD40-Fc protein (human, biotinylated (sites not given) in the capture ELISA and the benchmark blocking ELISA; not biotinylated in the ligand blocking ELISA); test: competitive ELISA: BM2 (selicrelumab) coated as competitor, antibody titrated and pre-mixed with biotinylated human CD40-Fc 0.23 nM, streptavidin-HRP, OD(450-630)
T1 construct: also called biotinylated human CD40-Fc
Protocol: The ability of the anti-CD40 antibody of the present application to block the binding of the benchmark to human CD40 was determined by competitive ELISA. Briefly, BM2 antibody was immobilized on a 96-well micro plates at 1 μg/mL in PBS, 100 µL/well, and incubated overnight at 4° C. The next day, the plate was washed once with a washing buffer before a blocking buffer (PBST containing 5% w/v of skim milk) was added. The plate was then incubated at 37° C. for 2 h for blocking. During the blocking of the 96-well plate, the anti-CD40 antibody of the present application or the benchmark was serially 5-fold diluted from 66.7 nM with a biotinylated human CD40-Fc protein (amino acid residues 21-193 of SEQ ID NO: 30 linked to the N terminus of amino acid residues 99-330 of SEQ ID NO: 28, dissolved in PBST containing 2.5% w/v of skim milk at a concentration of 0.23 nM) and then incubated at room temperature for 40 min. After the plate was washed 4 times, the antibody/biotinylated human CD40-Fc mixture was added at 100 μL/well to the plate coated with BM2. The plate was incubated at 37° C. for 40 min and again washed 4 times with the washing buffer. An HRP-labeled streptavidin was added at 100 μL/well, and the plate was incubated at 37° C. for 40 min to detect biotinylated human CD40-Fc immobilized on the plate. Again, the plate was washed 4 times with the washing buffer. Finally, TMB was added and the reaction was stopped by adding 1 M H₂SO₄. The absorbance was read on a microplate reader using the dual wavelength mode (TMB detection wavelength: 450 nm, reference wavelength: 630 nm). Curves of OD(450-630) values vs. antibody concentration were plotted. Data were analyzed using Graphpad Prism software, and IC₅₀ values were obtained.

human CD40-Fc protein [2] = target: T1, human CD40-Fc protein; test: capture ELISA: antibody captured on coated goat anti-human IgG F(ab')2, biotinylated human CD40-Fc 1.15 nM, streptavidin-HRP, OD(450-630)
Protocol: The plate was washed once with a washing buffer (PBS+0.05% v/v of Tween-20, PBST) and then blocked with 200 μL/well blocking buffer (PBST containing 5% w/v of skim milk) for 2 h at 37° C. The plate was washed 4 times, and the anti-CD40 antibody of the present application, BM1, BM2, and a negative control hIgG (human immunoglobulin for intravenous injection (pH 4), Hualan Biological Engineering Inc.) serially 5-fold diluted from 66.7 nM in a PBST containing 2.5% w/v of skim milk was added at 100 μL per well. The plate was incubated for 40 min at 37° C. and washed 4 times. A biotinylated human CD40-Fc protein (amino acid residues 21-193 of SEQ ID NO: 30 linked to the N terminus of amino acid residues 99-330 of SEQ ID NO: 28, dissolved in PBST containing 2.5% w/v of skim milk at a concentration of 1.15 nM) was added at 100 μL/well to a 96-well plate coated with the anti-CD40 antibody. The plate was incubated at 37° C. for 40 min and washed 4 times. An HRP-labeled streptavidin (diluted at 1:10000 in PBST, Jackson Immuno Research, Cat. No. 016-030-084) was added at 100 μL/well, and the plate was incubated at 37° C. for another 40 min. After the last wash, 100 μL/well of ELISA substrate TMB (Innoreagents, Cat. No. TMB-S-002) was added and the plate was incubated at room temperature. After 3-10 min, the reaction was stopped by adding 1 M H₂SO₄ at 50 µL/well, and the absorbance of each well was read on a microplate reader using the dual wavelength mode (TMB detection wavelength: 450 nm, reference wavelength: 630 nm). Curves of OD(450-630) values vs. antibody concentration were plotted. Data were analyzed using Graphpad Prism software, and EC₅₀ values were obtained.

[3] = target: T2, cynomolgus monkey CD40-his protein (Acro biosystems, Cat. No. CD0-C52H6) (cynomolgus monkey, UniProt G7PG38 21-193); test: SPR (Biacore T200), antibody captured on anti-human IgG chip, CD40-his as analyte, 1:1 fit
T2 construct: Bought protein; not shown: His tag
Source text: (§1) Briefly, a goat anti-human IgG (GE Healthcare, Cat. No. BR100839, human antibody capture kit) was covalently linked to a CM5 chip (GE Healthcare, Cat. No. BR100530, carboxymethylated dextran-coated chip) via the primary amine group using a standard amine coupling kit supplied by Biacore (GE Healthcare, Pittsburgh, PA, USA). Unreacted portions on the biosensor surface were blocked with ethanolamine. Then, the anti-CD40 antibody of the present application and two benchmark antibodies (BM1 (dacetuzumab, Genentech Inc., also referred to CD40-BM1, prepared in-house; the heavy and light chain amino acid sequences are set forth in SEQ ID NOs: 40 and 41, respectively) and BM2 (selicrelumab, Abgenix Inc., also referred to CD40-BM2, prepared in-house; the heavy and light chain amino acid sequences are set forth in SEQ ID NOS: 42 and 43, respectively)) at a concentration of 66.67 nM were directed through the chip at a flow rate of 10 μL/min. Then, serially diluted recombinant human CD40-his (Acro biosystems, Cat. No. CD0-H5228, serially 2-fold diluted from 80 nM in HBS-EP⁺ buffer (supplied by Biacore)) or cynomolgus monkey CD40-his protein (Acro biosystems, Cat. No. CD0-C52H6, serially 2-fold diluted from 80 nM in HBS-EP⁺ buffer (supplied by Biacore)) was directed through the chip at a flow rate of 30 μL/min. The antigen-antibody binding kinetics was tracked for 2 min and the dissociation kinetics was tracked for 10 min. The association and dissociation curves were fitted to a 1:1 Langmuir binding model using BIAcore evaluation software. KD, Kₐ, and Kd values were determined.

[4] = target: T3, recombinant human CD40-his (Acro biosystems, Cat. No. CD0-H5228) (human, UniProt P25942 21-193); test: as above
T3 construct: Bought protein; also called human CD40-his protein; not shown: His tag
Source text: as §1

| Binder | IC50 (human CD40-Fc protein [1]) | EC50 (human CD40-Fc protein [2]) | Kd [3] | koff [3] | kon [3] | Kd [4] | koff [4] | kon [4] |
| --- | --- | --- | --- | --- | --- | --- | --- | --- |
| B1 | 0.125 nM | 0.203 nM |  |  |  |  |  |  |
| B2 | 0.16 nM | 0.343 nM | 0.846 nM | 0.00215 s⁻¹ | 2.54e+06 M⁻¹ s⁻¹ | 0.884 nM | 0.00222 s⁻¹ | 2.51e+06 M⁻¹ s⁻¹ |
| B3 | 0.513 nM |  | 1.11 nM | 0.00237 s⁻¹ | 2.14e+06 M⁻¹ s⁻¹ | 1.1 nM | 0.00248 s⁻¹ | 2.25e+06 M⁻¹ s⁻¹ |
| B4 | 0.318 nM |  | 1.07 nM | 0.00274 s⁻¹ | 2.56e+06 M⁻¹ s⁻¹ | 1.17 nM | 0.0027 s⁻¹ | 2.31e+06 M⁻¹ s⁻¹ |
| B5 |  | 1.34 nM | 8.73 nM | 0.00151 s⁻¹ | 173000 M⁻¹ s⁻¹ | 7.84 nM | 0.00162 s⁻¹ | 206000 M⁻¹ s⁻¹ |
| B6 | 0.0461 nM | 0.59 nM | 9.68 nM | 0.0074 s⁻¹ | 764000 M⁻¹ s⁻¹ | 9.42 nM | 0.00756 s⁻¹ | 803000 M⁻¹ s⁻¹ |

— patent publication US20240398942A1 (CHIA TAI TIANQING PHARMACEUTICAL GROUP, published 2024)
